From publication PMC7979924 (2021)
One block for each binder: values may come before it.

Tests used:
YB-1-CSD (1–180 aa.) = YB-1-CSD (1–180 aa.) (Homo sapiens (Human), UniProt P67809); test: EMSA; in presence of ssDNA (M13, stem-loop or C20); tests mixing/cooperative co-association on nucleic acid, not direct binding
Lin28-CSD (32–136 aa.) = molecular target: T1, Lin28-CSD (32–136 aa.) (Homo sapiens (Human), UniProt Q9H9Z2); test: NMR 1H-15N HSQC (peak heights); in presence of 20-nt poly(C) ssDNA; tests co-association on nucleic acid, not direct protein-protein binding
T1 chain: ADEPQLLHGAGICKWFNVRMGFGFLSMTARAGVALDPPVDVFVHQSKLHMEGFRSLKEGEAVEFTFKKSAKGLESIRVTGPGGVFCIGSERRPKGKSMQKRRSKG

Sequence of YB-1-CSD (1–180 aa.) (P67809 1-180): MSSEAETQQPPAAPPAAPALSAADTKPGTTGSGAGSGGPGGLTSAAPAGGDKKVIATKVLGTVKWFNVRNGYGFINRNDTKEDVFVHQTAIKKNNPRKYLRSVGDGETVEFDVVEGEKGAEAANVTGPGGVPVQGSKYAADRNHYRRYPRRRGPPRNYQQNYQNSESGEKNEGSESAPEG

binding result (YB-1-CSD (1–180 aa.)): no binding
B1: FUS (RRM, 165–385aa.) (protein)
chain: SGGGGGGGGGGNYGQDQSSMSSGGGSGGGYGNQDQSGGGGSGGYGQQDRGGRGRGGSGGGGGGGGGGYNRSSGGYEPRGRGGGRGGRGGMGGSDRGGFNKFGGPRDQGSRHDSEQDNSDNNTIFVQGLGENVTIESVADYFKQIGIIKTNKKTGQPMINLYTDRETGKLKGEATVSFDDPPSAKAAIDWFDGKEFSGNPIKVSFATRRADFNRGGGNGRGG

binding result (Lin28-CSD (32–136 aa.)): no binding
B2: TDP-43 RRM2 (176–277aa.) (protein)
chain: KLPNSKQSQDEPLRSRKVFVGRCTEDMTEDELREFFSQYGDVMDVFIPKPFRAFAFVTFADDQIAQSLCGEDLIIKGISVHISNAEPKHNSNRQLERSGRFG

binding result (YB-1-CSD (1–180 aa.)): no binding
B3: TDP43 (RRM 1–2, 101–277aa.) (protein)
chain: QKTSDLIVLGLPWKTTEQDLKEYFSTFGEVLMVQVKKDLKTGHSKGFGFVRFTEYETQVKVMSQRHMIDGRWCDCKLPNSKQSQDEPLRSRKVFVGRCTEDMTEDELREFFSQYGDVMDVFIPKPFRAFAFVTFADDQIAQSLCGEDLIIKGISVHISNAEPKHNSNRQLERSGRFG
